Measured values from USRE47150 (Bayer, dated 2018).

T1: mouse tissue factor pathway inhibitor (TFPI) (mouse, UniProt O54819 29-289, limits assumed)
T1 construct: bought; also called mTFPI; murine TFPI
T1 sequence (looked up): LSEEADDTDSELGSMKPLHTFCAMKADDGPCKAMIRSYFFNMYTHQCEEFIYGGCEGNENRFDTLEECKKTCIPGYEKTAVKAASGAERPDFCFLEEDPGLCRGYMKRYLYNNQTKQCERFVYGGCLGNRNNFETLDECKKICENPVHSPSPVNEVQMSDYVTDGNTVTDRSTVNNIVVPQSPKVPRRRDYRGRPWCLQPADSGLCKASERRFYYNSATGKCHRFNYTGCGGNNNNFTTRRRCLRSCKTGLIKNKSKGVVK

T2: human tissue factor pathway inhibitor (TFPI) (human, UniProt P10646 29-304, limits assumed)
T2 construct: bought; also called hTFPI; human TFPI
T2 sequence (looked up): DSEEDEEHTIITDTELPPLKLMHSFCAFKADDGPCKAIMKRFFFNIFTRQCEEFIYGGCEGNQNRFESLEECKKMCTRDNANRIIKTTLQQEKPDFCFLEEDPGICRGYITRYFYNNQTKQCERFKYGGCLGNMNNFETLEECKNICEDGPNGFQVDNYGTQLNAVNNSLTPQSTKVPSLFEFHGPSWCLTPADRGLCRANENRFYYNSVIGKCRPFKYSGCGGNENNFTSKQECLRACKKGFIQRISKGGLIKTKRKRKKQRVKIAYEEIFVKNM


How the values were obtained:
[1] = biological target: T1, mouse tissue factor pathway inhibitor …; test: competitive ELISA
[2] = biological target: T2, human tissue factor pathway inhibitor …; test: competitive ELISA

variant/HC_D62R [1] [ratio]	variant/HC_D62R [2] [ratio]	Binder
31.7	22.7	4B7 HC D62Q+H107M+Y112D/LC D33F+N35I (Fab, V domains shown) VH: QVQLQQSGPGLVKPSQTLSLTCAISGDSVSSNSAAWSWIRQSPGRGLEWLGIIYKRSKWYNQYAVSVKSRITINPDTSKNQFSLQLNSVTPEDTAVYYCARWHSDKMWGFDDWGQGTLVTVSS VL: DIVMTQSPLSLPVTPGEPASISCRSSQSLVFSFGITYLNWYLQKPGQSPQLLIYKGSNRASGVPDRFSGSGSGTDFTLKISRVEAEDVGVYYCQQYDSYPLTFGQGTKVEIKR
35.4	22	4B7 HC D62R+H107M+Y112D/LC F31I+D33R+N35I (Fab, V domains shown) VH: QVQLQQSGPGLVKPSQTLSLTCAISGDSVSSNSAAWSWIRQSPGRGLEWLGIIYKRSKWYNRYAVSVKSRITINPDTSKNQFSLQLNSVTPEDTAVYYCARWHSDKMWGFDDWGQGTLVTVSS VL: DIVMTQSPLSLPVTPGEPASISCRSSQSLVISRGITYLNWYLQKPGQSPQLLIYKGSNRASGVPDRFSGSGSGTDFTLKISRVEAEDVGVYYCQQYDSYPLTFGQGTKVEIKR
47	30.9	4B7 HC D62R+H107M+Y112D/LC F31M+D33F+N35I (Fab, V domains shown) VH: QVQLQQSGPGLVKPSQTLSLTCAISGDSVSSNSAAWSWIRQSPGRGLEWLGIIYKRSKWYNRYAVSVKSRITINPDTSKNQFSLQLNSVTPEDTAVYYCARWHSDKMWGFDDWGQGTLVTVSS VL: DIVMTQSPLSLPVTPGEPASISCRSSQSLVMSFGITYLNWYLQKPGQSPQLLIYKGSNRASGVPDRFSGSGSGTDFTLKISRVEAEDVGVYYCQQYDSYPLTFGQGTKVEIKR
50.3	24.1	4B7 HC D62R+H107M+Y112D/LC S32R+D33F+N35I (Fab, V domains shown) VH: QVQLQQSGPGLVKPSQTLSLTCAISGDSVSSNSAAWSWIRQSPGRGLEWLGIIYKRSKWYNRYAVSVKSRITINPDTSKNQFSLQLNSVTPEDTAVYYCARWHSDKMWGFDDWGQGTLVTVSS VL: DIVMTQSPLSLPVTPGEPASISCRSSQSLVFRFGITYLNWYLQKPGQSPQLLIYKGSNRASGVPDRFSGSGSGTDFTLKISRVEAEDVGVYYCQQYDSYPLTFGQGTKVEIKR
38.1	23.6	4B7 HC D62Q+Y112D/LC S32R+D33F+N35I (Fab, V domains shown) VH: QVQLQQSGPGLVKPSQTLSLTCAISGDSVSSNSAAWSWIRQSPGRGLEWLGIIYKRSKWYNQYAVSVKSRITINPDTSKNQFSLQLNSVTPEDTAVYYCARWHSDKHWGFDDWGQGTLVTVSS VL: DIVMTQSPLSLPVTPGEPASISCRSSQSLVFRFGITYLNWYLQKPGQSPQLLIYKGSNRASGVPDRFSGSGSGTDFTLKISRVEAEDVGVYYCQQYDSYPLTFGQGTKVEIKR
18.8	23.7	4B7 HC N32D+D62Q+H107M+Y112D/LC D33R+N35T (Fab, V domains shown) VH: QVQLQQSGPGLVKPSQTLSLTCAISGDSVSSDSAAWSWIRQSPGRGLEWLGIIYKRSKWYNQYAVSVKSRITINPDTSKNQFSLQLNSVTPEDTAVYYCARWHSDKMWGFDDWGQGTLVTVSS VL: DIVMTQSPLSLPVTPGEPASISCRSSQSLVFSRGTTYLNWYLQKPGQSPQLLIYKGSNRASGVPDRFSGSGSGTDFTLKISRVEAEDVGVYYCQQYDSYPLTFGQGTKVEIKR
31.3	24.2	4B7 HC D62R+H107M+Y112D/LC F31M+D33F (Fab, V domains shown) VH: QVQLQQSGPGLVKPSQTLSLTCAISGDSVSSNSAAWSWIRQSPGRGLEWLGIIYKRSKWYNRYAVSVKSRITINPDTSKNQFSLQLNSVTPEDTAVYYCARWHSDKMWGFDDWGQGTLVTVSS VL: DIVMTQSPLSLPVTPGEPASISCRSSQSLVMSFGNTYLNWYLQKPGQSPQLLIYKGSNRASGVPDRFSGSGSGTDFTLKISRVEAEDVGVYYCQQYDSYPLTFGQGTKVEIKR
31.7	18.2	4B7 HC D62S+H107M+Y112D/LC S32R+D33F+N35I (Fab, V domains shown) VH: QVQLQQSGPGLVKPSQTLSLTCAISGDSVSSNSAAWSWIRQSPGRGLEWLGIIYKRSKWYNSYAVSVKSRITINPDTSKNQFSLQLNSVTPEDTAVYYCARWHSDKMWGFDDWGQGTLVTVSS VL: DIVMTQSPLSLPVTPGEPASISCRSSQSLVFRFGITYLNWYLQKPGQSPQLLIYKGSNRASGVPDRFSGSGSGTDFTLKISRVEAEDVGVYYCQQYDSYPLTFGQGTKVEIKR
38.8	22.7	4B7 HC N32D+D62K+Y112D/LC S32R+D33F+N35I+D97T (Fab, V domains shown) VH: QVQLQQSGPGLVKPSQTLSLTCAISGDSVSSDSAAWSWIRQSPGRGLEWLGIIYKRSKWYNKYAVSVKSRITINPDTSKNQFSLQLNSVTPEDTAVYYCARWHSDKHWGFDDWGQGTLVTVSS VL: DIVMTQSPLSLPVTPGEPASISCRSSQSLVFRFGITYLNWYLQKPGQSPQLLIYKGSNRASGVPDRFSGSGSGTDFTLKISRVEAEDVGVYYCQQYTSYPLTFGQGTKVEIKR
11.5	20.2	4B7 HC N32D+D62Q+H107M+Y112D/LC F31I+S32R+D33R+N35I+D97T (Fab, V domains shown) VH: QVQLQQSGPGLVKPSQTLSLTCAISGDSVSSDSAAWSWIRQSPGRGLEWLGIIYKRSKWYNQYAVSVKSRITINPDTSKNQFSLQLNSVTPEDTAVYYCARWHSDKMWGFDDWGQGTLVTVSS VL: DIVMTQSPLSLPVTPGEPASISCRSSQSLVIRRGITYLNWYLQKPGQSPQLLIYKGSNRASGVPDRFSGSGSGTDFTLKISRVEAEDVGVYYCQQYTSYPLTFGQGTKVEIKR
39.9	21.9	4B7 HC D62R+Y112D/LC S32R+D33F+N35I (Fab, V domains shown) VH: QVQLQQSGPGLVKPSQTLSLTCAISGDSVSSNSAAWSWIRQSPGRGLEWLGIIYKRSKWYNRYAVSVKSRITINPDTSKNQFSLQLNSVTPEDTAVYYCARWHSDKHWGFDDWGQGTLVTVSS VL: DIVMTQSPLSLPVTPGEPASISCRSSQSLVFRFGITYLNWYLQKPGQSPQLLIYKGSNRASGVPDRFSGSGSGTDFTLKISRVEAEDVGVYYCQQYDSYPLTFGQGTKVEIKR
36.6	20	4B7 HC D62R+H107M+Y112D/LC D33F+N35I (Fab, V domains shown) VH: QVQLQQSGPGLVKPSQTLSLTCAISGDSVSSNSAAWSWIRQSPGRGLEWLGIIYKRSKWYNRYAVSVKSRITINPDTSKNQFSLQLNSVTPEDTAVYYCARWHSDKMWGFDDWGQGTLVTVSS VL: DIVMTQSPLSLPVTPGEPASISCRSSQSLVFSFGITYLNWYLQKPGQSPQLLIYKGSNRASGVPDRFSGSGSGTDFTLKISRVEAEDVGVYYCQQYDSYPLTFGQGTKVEIKR
18.2	20.4	4B7 HC D62R+H107M+Y112D/LC F31I+S32R+D33F+N35I+D97T (Fab, V domains shown) VH: QVQLQQSGPGLVKPSQTLSLTCAISGDSVSSNSAAWSWIRQSPGRGLEWLGIIYKRSKWYNRYAVSVKSRITINPDTSKNQFSLQLNSVTPEDTAVYYCARWHSDKMWGFDDWGQGTLVTVSS VL: DIVMTQSPLSLPVTPGEPASISCRSSQSLVIRFGITYLNWYLQKPGQSPQLLIYKGSNRASGVPDRFSGSGSGTDFTLKISRVEAEDVGVYYCQQYTSYPLTFGQGTKVEIKR
19.4	20.1	4B7 HC D62R+H107M+Y112D/LC N35T+D97T (Fab, V domains shown) VH: QVQLQQSGPGLVKPSQTLSLTCAISGDSVSSNSAAWSWIRQSPGRGLEWLGIIYKRSKWYNRYAVSVKSRITINPDTSKNQFSLQLNSVTPEDTAVYYCARWHSDKMWGFDDWGQGTLVTVSS VL: DIVMTQSPLSLPVTPGEPASISCRSSQSLVFSDGTTYLNWYLQKPGQSPQLLIYKGSNRASGVPDRFSGSGSGTDFTLKISRVEAEDVGVYYCQQYTSYPLTFGQGTKVEIKR
